Reference: the supplement of paper PMC7877785
± gives the uncertainty stated by the source.

Assay: self-splicing fitness, log relative to wild type (ln ratio); higher = more splicing; Tetrahymena group I intron in knt gene, E. coli kanamycin selection, DiMSum; sequences stand for … in CUCUCU…GGAGGGAAAAGUUAUCAGGCAUGCACCUGGUAGCUAGUCUUUAAACCAAUAGAUUGCAUCGGUUUAAAAGGCAAGACCGUCAAAUUGCGGGAAAGGGGUCAACAGCCGUUCAGUACCAAGUCUCAGGGGAAACUUUGAGAUGGCCUUGCAAAGGGUAUGGUAAUAAGCUGACGGACAUGGUCCUAACCACGCAGCCAAGUCCUAAGUCAACAGAUCUUCUGUUGAUAUGGAUGCAGUUCACAGACUAAAUGUCGGUCGGGGAAGAUGUAUUCUUCUCAUAAGAUAUAGUCGGACCUCUCCUUAAUGGGAGCUAGCGGAUGAAGUGAUGCAACACUGGAGCCGCUGGGAACUAAUUUGUAUGCGAAAGUAUAUUGAUUAGUUUUGGAGUACUCGUGGUCG
Outline: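 Library with all eight P1ex-region intron nucleotides randomised, intron inside the knt kanamycin-resistance gene on pET-22b(+), in E. coli BL21(DE3). Cells grew overnight at 37°C or 30°C on LB agar with or without 25 μg/mL kanamycin (plus 100 μg/mL carbenicillin, 50 μM IPTG, 0.2% rhamnose), in six replicate transformations. Pooled colonies were amplicon-sequenced on Illumina HiSeq 2500. DiMSum fitness is the error-weighted combination of wild-type-normalised replicate fold changes, kanamycin versus none.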

Sequence | self-splicing fitness (ln) (30 °C) | self-splicing fitness (ln) (37 °C)
AAGAAGCAAUAUUACGUACG | -0.925 ± 0.092 | -0.719 ± 0.11
UCUCAGCAAUAUUACGAGAA | -2.45 ± 0.29 | -0.803 ± 0.2
CGUAAGCAAUAUUACGAUCC | -2.82 ± 0.33 | -1.82 ± 0.3
CUGCAGCAAUAUUACGCCUA |  | -0.55 ± 0.23
CAUUAGCAAUAUUACGCUCU | -2.64 ± 0.2 | -1.43 ± 0.22
GUCAAGCAAUAUUACGAGCU | -3.49 ± 0.17 | -1.85 ± 0.15
GGCAAGCAAUAUUACGGGAG | -2.47 ± 0.15 | -1.44 ± 0.18
GUAUAGCAAUAUUACGUUGC | -2.83 ± 0.26 | 
CCGGAGCAAUAUUACGUGGC | -3.77 ± 0.39 | 
UGCAAGCAAUAUUACGUGGA | -2.88 ± 0.17 | -1.36 ± 0.11
GUAUAGCAAUAUUACGCACU | -1.9 ± 0.16 | -0.384 ± 0.14
GAAUAGCAAUAUUACGCAGU | -2.57 ± 0.15 | -0.857 ± 0.12
CCCAAGCAAUAUUACGUCGU | -4.05 ± 0.2 | -2.31 ± 0.15
UACAAGCAAUAUUACGGCAU | -1.49 ± 0.068 | -0.705 ± 0.072
CGCCAGCAAUAUUACGAGGC | -2.66 ± 0.2 | -3.07 ± 0.32
CCCAAGCAAUAUUACGGGGG | -3.6 ± 0.13 | -3 ± 0.19
UAACAGCAAUAUUACGCCUA | -0.308 ± 0.064 | 0.598 ± 0.083
GUUCAGCAAUAUUACGUGGA | -3.5 ± 0.41 | -1.42 ± 0.2
CUCCAGCAAUAUUACGUGAG | -3.61 ± 0.15 | -2.62 ± 0.18
GUCUAGCAAUAUUACGGAGU | -0.693 ± 0.096 | 0.121 ± 0.093
UAACAGCAAUAUUACGCUAU | -2.86 ± 0.12 | -1.82 ± 0.11
GUUCAGCAAUAUUACGUACA | -1.13 ± 0.11 | -0.94 ± 0.11
GCUUAGCAAUAUUACGUAAA | -0.47 ± 0.084 | 0.317 ± 0.1
UGGAAGCAAUAUUACGCCAA | -1.12 ± 0.24 | -0.536 ± 0.26

Sequence | self-splicing fitness (ln) (30 °C) | self-splicing fitness (ln) (37 °C)
UCCUAGCAAUAUUACGGCGU | -0.736 ± 0.087 | -0.557 ± 0.12
AUUUAGCAAUAUUACGUUGA | -1.32 ± 0.2 | -2.27 ± 0.26
AACCAGCAAUAUUACGAAGC | -3.37 ± 0.13 | -0.929 ± 0.099
GCUCAGCAAUAUUACGUUUG | -2.64 ± 0.13 | -1.8 ± 0.15
UGGCAGCAAUAUUACGGCAA | 0.308 ± 0.22 | 0.661 ± 0.19
UGCGAGCAAUAUUACGGGAG | -4.04 ± 0.19 | -2.61 ± 0.17
UCUCAGCAAUAUUACGACGA | -0.256 ± 0.12 | -0.879 ± 0.13
ACUGAGCAAUAUUACGCAGA | -2.38 ± 0.14 | -1.25 ± 0.1
AGUAAGCAAUAUUACGUGAG | -3.88 ± 0.15 | -1.07 ± 0.11
GUUAAGCAAUAUUACGAUCA | -0.949 ± 0.23 | -0.245 ± 0.2
CGGUAGCAAUAUUACGCUGG | -0.433 ± 0.13 | -0.681 ± 0.15
UUCCAGCAAUAUUACGGCAU | -1.79 ± 0.085 | -0.66 ± 0.089
GCGGAGCAAUAUUACGAUAU | -2.17 ± 0.14 | -2.02 ± 0.18
ACUGAGCAAUAUUACGUUUA | -2.52 ± 0.2 | -3.08 ± 0.24
UCGUAGCAAUAUUACGUCUA | -1.48 ± 0.1 | -0.978 ± 0.12
ACUAAGCAAUAUUACGUAUU | -2.09 ± 0.082 | -1.9 ± 0.11
ACCAAGCAAUAUUACGCGAU | -2.1 ± 0.079 | -1.17 ± 0.11
UCCAAGCAAUAUUACGCGAU | -4.34 ± 0.21 | -2.24 ± 0.17
ACCUAGCAAUAUUACGAAAU | -2.9 ± 0.16 | -0.321 ± 0.15
GACUAGCAAUAUUACGGUCA | -1.13 ± 0.27 | -1.36 ± 0.26
AACUAGCAAUAUUACGGUUA | -0.722 ± 0.084 | -0.482 ± 0.083
CUAGAGCAAUAUUACGUACA | -2.59 ± 0.36 | -1.64 ± 0.32
UUCGAGCAAUAUUACGCGGU | -3.26 ± 0.2 | -1.17 ± 0.2
CGUGAGCAAUAUUACGCGUC | -3.12 ± 0.31 | 
